Reference: patent US20150118710
Several values for one entry are separate records, joined by “and”; a condition that tells them apart may be missing. Identical values can stand only once.

Experiments:
[1] = test system: Insulin glargine single chain precursor (Fglargine), glargine pro-peptide
[2] = target: Insulin glargine single chain precursor (Fglargine), glargine pro-peptide; remark: listed apart in the source

Which % conversion achieved (HPLC peak areas) [1] does the source give for “endogenous Kex2p (Kexin endoprotease) of Pichia pastoris” here?
The % conversion achieved (HPLC peak areas) was 0%.

What about the % yield increased (two chain glargine), clone without co-expression [1] of the same molecule?
Its % yield increased (two chain glargine), clone without co-expression is 5% and 0%.

What about the “secretion of two chain glargine (mass analysis of secreted product)” value [1] of the same molecule?
Its value is “it is not possible to secrete two chain glargine directly into the medium using endogenous Kex2p alone”.

B1: ΔKex2p, 660 amino acid functional domain of Kexin endoprotease (Kex2p) from Pichia pastoris (protein)
chain: MYLPALRLACWILIGLRSTEALETSEREIFALKLDKSWLPTFLETFQDKFRYERQINGLDDYHVFSHSKNEEFQLENFKVKTLLTRDNANLHSELISHNVDEVHMLRPSHYLHKRAPVVMDKSEELREQIAKDFDIDDPLFAKQWHLFNPRYPGHDVNVSQVWYDGITGKGVVTAIVDDGLDMDSKDLKESFCEEGSWDFNANTRLPKPRLRDDHHGTRCAAEIAAKKGNKYCGVGVAYDSKVSGIRILSDKITPEDEALSLIYGLDVNDIYSCSWGPADNGITMQGPSSLVKEAMLKGVQDGRKGKGALYVFASGNGASSGDNCNFDGYTNSIYSITVGAIDIKGLHPPYAEACSAVMTVTYSSGSGEHIHTTDINDKCSDTHGGTSAAAPLAAGLYSLVYQANPDLTWRDIQWLTVLTAVPVNEQEPGWQKTAIGKMYSHKYGYGKIDAYALVNLARSPDFPYLKPQSWIYGTEVHESLNTSEANGVLTSKYELTQEAKDLMNFEKIEHVTVTVDIKAAERGKVLVELISPSGVVSELAPYRRMDKDKEGFPNWTFMSVAHWGEDGLGEWILKITNKEGNSVVLNSWQIKFFGESQDPEKAEKFSLTKKYDEILVNPPSSSTSTTVDTSSTEATFSSSSVSEASATETDVKETSTTGD
With B1 as the molecule, how does the % conversion achieved (HPLC peak areas), Clone #2F6, GAP promoter [2] read?
The % conversion achieved (HPLC peak areas), Clone #2F6, GAP promoter was 9.44%.

And the % conversion achieved (HPLC peak areas), Clone #3C1, GAP promoter [2]?
The % conversion achieved (HPLC peak areas), Clone #3C1, GAP promoter was 31.4%.

What about the % conversion achieved (HPLC peak areas), Clone #4B7, GAP promoter [2] of the same molecule?
The % conversion achieved (HPLC peak areas), Clone #4B7, GAP promoter was 33.6%.

And the % conversion achieved (HPLC peak areas), Clone #5C5, GAP promoter [2]?
The % conversion achieved (HPLC peak areas), Clone #5C5, GAP promoter was 45%.

What about the % conversion achieved (HPLC peak areas), Clone #IB4, GAP promoter [2] of the same molecule?
Its % conversion achieved (HPLC peak areas), Clone #IB4, GAP promoter is 13%.

What about the % conversion achieved (HPLC peak areas), Clone# 6D6, GAP promoter [2] of the same molecule?
The % conversion achieved (HPLC peak areas), Clone# 6D6, GAP promoter was 59.5%.

What about the % yield increased (two chain glargine), FLD1 promoter [2] of the same molecule?
The % yield increased (two chain glargine), FLD1 promoter was > 93%.

What about the % yield increased (two chain glargine), GAP promoter [2] of the same molecule?
Its % yield increased (two chain glargine), GAP promoter is 60%.
